The series deals with the molecule itself. Kind of series: SEC-MALS.

By stoichiometry N is commonly meant the number of molecules, sites or subunits per partner or assembly.

B1: Flag-UBE2O-TwinStrep (recombinant Homo sapiens UBE2O, purified) (enzyme, human, UniProt Q9C0C9 1-1292, looked up)
chain: MADPAAPTPAAPAPAQAPAPAPEAVPAPAAAPVPAPAPASDSASGPSSDSGPEAGSQRLLFSHDLVSGRYRGSVHFGLVRLIHGEDSDSEGEEEGRGSSGCSEAGGAGHEEGRASPLRRGYVRVQWYPEGVKQHVKETKLKLEDRSVVPRDVVRHMRSTDSQCGTVIDVNIDCAVKLIGTNCIIYPVNSKDLQHIWPFMYGDYIAYDCWLGKVYDLKNQIILKLSNGARCSMNTEDGAKLYDVCPHVSDSGLFFDDSYGFYPGQVLIGPAKIFSSVQWLSGVKPVLSTKSKFRVVVEEVQVVELKVTWITKSFCPGGTDSVSPPPSVITQENLGRVKRLGCFDHAQRQLGERCLYVFPAKVEPAKIAWECPEKNCAQGEGSMAKKVKRLLKKQVVRIMSCSPDTQCSRDHSMEDPDKKGESKTKSEAESASPEETPDGSASPVEMQDEGAEEPHEAGEQLPPFLLKEGRDDRLHSAEQDADDEAADDTDDTSSVTSSASSTTSSQSGSGTSRKKSIPLSIKNLKRKHKRKKNKITRDFKPGDRVAVEVVTTMTSADVMWQDGSVECNIRSNDLFPVHHLDNNEFCPGDFVVDKRVQSCPDPAVYGVVQSGDHIGRTCMVKWFKLRPSGDDVELIGEEEDVSVYDIADHPDFRFRTTDIVIRIGNTEDGAPHKEDEPSVGQVARVDVSSKVEVVWADNSKTIILPQHLYNIESEIEESDYDSVEGSTSGASSDEWEDDSDSWETDNGLVEDEHPKIEEPPIPPLEQPVAPEDKGVVISEEAATAAVQGAVAMAAPMAGLMEKAGKDGPPKSFRELKEAIKILESLKNMTVEQLLTGSPTSPTVEPEKPTREKKFLDDIKKLQENLKKTLDNVAIVEEEKMEAVPDVERKEDKPEGQSPVKAEWPSETPVLCQQCGGKPGVTFTSAKGEVFSVLEFAPSNHSFKKIEFQPPEAKKFFSTVRKEMALLATSLPEGIMVKTFEDRMDLFSALIKGPTRTPYEDGLYLFDIQLPNIYPAVPPHFCYLSQCSGRLNPNLYDNGKVCVSLLGTWIGKGTERWTSKSSLLQVLISIQGLILVNEPYYNEAGFDSDRGLQEGYENSRCYNEMALIRVVQSMTQLVRRPPEVFEQEIRQHFSTGGWRLVNRIESWLETHALLEKAQALPNGVPKASSSPEPPAVAELSDSGQQEPEDGGPAPGEASQGSDSEGGAQGLASASRDHTDQTSETAPDASVPPSVKPKKRRKSYRSFLPEKSGYPDIGFPLFPLSKGFIKSIRGVLTQFRAALLEAGMPECTEDK
Consider B1, for which the “stoichiometry N” value is 2.

Source of the values: paper doi:10.1101/2025.06.27.661974 (bioRxiv, 2025).
